# Test results taken from article PMC11848091 (Heliyon, 2025).
# T1: Mouse TNFR1 (mouse, UniProt P25118)
# T1 sequence: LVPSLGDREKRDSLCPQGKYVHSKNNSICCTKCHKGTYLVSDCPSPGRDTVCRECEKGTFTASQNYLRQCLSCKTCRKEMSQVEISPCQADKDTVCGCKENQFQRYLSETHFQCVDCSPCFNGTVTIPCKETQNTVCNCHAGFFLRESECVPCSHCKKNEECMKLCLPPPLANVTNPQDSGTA
# B1: Mouse TNF (ligand)
# chain: LRSSSQNSSDKPVAHVVANHQVEEQLEWLSQRANALLANGMDLKDNQLVVPADGLYLVYSQVLFKGQGCPDYVLLTHTVSRFAISYQEKVNLLSAVKSPCPKDTPEGAELKPWYEPIYLGGVFQLEKGDQLSAEVNLPKYLDFAESGQVYFGVIAL
# What was measured:
# Experiment in all cases: SPR
# [1] = target: T1, Mouse TNFR1
# [2] = target: Mouse CD163 (mouse, UniProt Q2VLH6)
# [3] = target: Human CD163 (human, UniProt Q86VB7)
# Sequence of Human CD163 (Q86VB7 42-1050): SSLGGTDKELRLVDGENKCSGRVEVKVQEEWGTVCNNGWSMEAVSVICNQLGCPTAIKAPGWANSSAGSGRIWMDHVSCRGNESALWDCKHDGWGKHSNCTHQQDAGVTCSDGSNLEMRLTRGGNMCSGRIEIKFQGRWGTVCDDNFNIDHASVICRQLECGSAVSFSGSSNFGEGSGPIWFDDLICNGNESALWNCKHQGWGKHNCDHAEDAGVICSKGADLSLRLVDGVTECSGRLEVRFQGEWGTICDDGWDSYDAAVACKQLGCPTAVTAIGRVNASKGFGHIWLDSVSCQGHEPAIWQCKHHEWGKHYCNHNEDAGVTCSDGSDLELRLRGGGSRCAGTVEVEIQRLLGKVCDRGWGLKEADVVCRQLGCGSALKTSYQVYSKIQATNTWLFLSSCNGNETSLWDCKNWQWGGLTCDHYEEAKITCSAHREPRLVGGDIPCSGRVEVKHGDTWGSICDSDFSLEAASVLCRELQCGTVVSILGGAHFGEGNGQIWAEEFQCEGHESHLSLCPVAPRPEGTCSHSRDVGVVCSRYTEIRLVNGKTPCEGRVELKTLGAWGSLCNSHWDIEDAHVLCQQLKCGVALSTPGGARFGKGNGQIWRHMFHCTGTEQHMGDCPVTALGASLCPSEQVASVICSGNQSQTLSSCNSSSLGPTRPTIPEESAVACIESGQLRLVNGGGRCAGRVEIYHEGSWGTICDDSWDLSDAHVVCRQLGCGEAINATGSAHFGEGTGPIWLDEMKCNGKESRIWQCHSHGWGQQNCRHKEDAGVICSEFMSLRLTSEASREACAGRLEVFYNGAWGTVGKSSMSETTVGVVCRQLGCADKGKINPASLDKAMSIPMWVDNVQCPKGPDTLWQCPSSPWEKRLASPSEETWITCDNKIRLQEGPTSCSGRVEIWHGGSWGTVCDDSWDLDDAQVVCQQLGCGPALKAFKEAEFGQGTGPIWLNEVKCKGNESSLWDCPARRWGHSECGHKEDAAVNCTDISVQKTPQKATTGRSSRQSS
# Sequence of Mouse CD163 (Q2VLH6 39-1045): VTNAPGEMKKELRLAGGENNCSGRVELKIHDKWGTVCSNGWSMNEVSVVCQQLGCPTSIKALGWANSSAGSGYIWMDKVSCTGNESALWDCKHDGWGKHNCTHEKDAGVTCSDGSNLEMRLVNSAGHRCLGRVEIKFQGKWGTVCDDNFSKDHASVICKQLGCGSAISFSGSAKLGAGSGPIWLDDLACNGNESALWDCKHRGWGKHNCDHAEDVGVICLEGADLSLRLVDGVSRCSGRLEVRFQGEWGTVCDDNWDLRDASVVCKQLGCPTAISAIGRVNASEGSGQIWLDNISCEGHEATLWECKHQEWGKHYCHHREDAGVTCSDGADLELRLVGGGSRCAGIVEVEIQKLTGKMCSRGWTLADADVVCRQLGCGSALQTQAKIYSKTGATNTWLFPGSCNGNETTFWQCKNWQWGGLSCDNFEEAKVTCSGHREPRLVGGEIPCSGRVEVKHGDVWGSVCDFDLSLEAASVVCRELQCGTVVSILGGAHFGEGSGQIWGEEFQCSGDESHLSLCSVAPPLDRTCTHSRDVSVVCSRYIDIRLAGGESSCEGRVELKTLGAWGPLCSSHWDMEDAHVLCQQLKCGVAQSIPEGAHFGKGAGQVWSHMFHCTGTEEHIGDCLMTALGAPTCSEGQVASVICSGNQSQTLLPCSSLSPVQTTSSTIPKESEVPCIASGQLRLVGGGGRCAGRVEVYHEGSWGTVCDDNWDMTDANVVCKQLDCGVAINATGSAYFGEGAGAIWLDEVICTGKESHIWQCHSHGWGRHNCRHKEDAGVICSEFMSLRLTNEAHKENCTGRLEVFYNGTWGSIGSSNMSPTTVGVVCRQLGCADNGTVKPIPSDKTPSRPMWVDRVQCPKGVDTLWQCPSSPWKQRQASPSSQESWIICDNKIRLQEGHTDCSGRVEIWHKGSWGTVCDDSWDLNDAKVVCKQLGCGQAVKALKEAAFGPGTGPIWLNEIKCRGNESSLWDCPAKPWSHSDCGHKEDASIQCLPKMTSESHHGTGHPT
binder,measurement,setting,value
B1,Kd,[1],69.6 nM
same,koff,[1],0.000379 s⁻¹
same,kon,[1],5450 M⁻¹ s⁻¹
same,Kd,[2],0.093 nM
same,koff,[2],0.000232 s⁻¹
same,kon,[2],2.5e+06 M⁻¹ s⁻¹
same,Kd,[3],1.93 nM
same,koff,[3],0.000151 s⁻¹
same,kon,[3],78500 M⁻¹ s⁻¹
